Assay results: patent US9278138B2, “Peptide linkers for effective multivalent peptide binding” (E. I. DU PONT DE NEMOURS AND COMPANY, priority 2008, dated 2016)
Changes are numbered by the printed parent chain.

B1: HP2-TonB-HP2: hair-binding domain, SEQ ID NO: 91 (peptide)
chain: PSAQSQLPDKHSGLHERAPQRYGPEPEPEPEPIPEPPKEAPVVIEKPKPKPKPKPKPPAAQSQLPDKHSGLHERAPQRYGS
B2: KF11-[(KP)6GG]2-Gray4A: hair-binding domain, SEQ ID NO: 97 (peptide)
chain: PSNTSQLSTGPKPKPKPKPKPKPGGKPKPKPKPKPKPGGPAHNHMQERYTAPQHSPSVNGLGS
B3: Gray5-(EAAAKLL)3-Gray3: hair-binding domain, SEQ ID NO: 92 (peptide)
chain: PSTAEIQSSKNPNPHPQRSWTNGPEAAAKLLEAAAKLLEAAAKLLPAHDHKNQKETHQRHAAGS
B4: HP2-(EEAAKK)5-Gray4A: hair-binding domain, SEQ ID NO: 74 (peptide)
chain: PSAQSQLPDKHSGLHERAPQRYGPEEAAKKEEAAKKEEAAKKEEAAKKEEAAKKPAHNHMQERYTAPQHSPSVNGLGS
B5: HP2-TonB-MEA4: hair-binding domain, SEQ ID NO: 89 (peptide)
chain: PSAQSQLPDKHSGLHERAPQRYGPEPEPEPEPIPEPPKEAPVVIEKPKPKPKPKPKPPAHINKTNPHQGNHHSEKTQRQGS
B6: Gray3-TonB-HP1: hair-binding domain, SEQ ID NO: 98 (peptide)
chain: PSHDHKNQKETHQRHAAGPEPEPEPEPIPEPPKEAPVVIEKPKPKPKPKPKPPAGSCVDTHKADSCVANNGPATGS
B7: Gray5-[(KP)6GG]2-HP2: hair-binding domain, SEQ ID NO: 99 (peptide)
chain: PSTAEIQSSKNPNPHPQRSWTNGPKPKPKPKPKPKPGGKPKPKPKPKPKPGGPAAQSQLPDKHSGLHERAPQRYGS
B8: Gray5-[(KP)6GG]2-Gray4A: hair-binding domain, SEQ ID NO: 78 (peptide)
chain: PSTAEIQSSKNPNPHPQRSWTNGPKPKPKPKPKPKPGGKPKPKPKPKPKPGGPAHNHMQERYTAPQHSPSVNGLGS
B9: HP2-(EEAAKK)4-Gray1: hair-binding domain, SEQ ID NO: 73 (peptide)
chain: PSAQSQLPDKHSGLHERAPQRYGPEEAAKKEEAAKKEEAAKKEEAAKKPAGMPAMHWIHPFAGS
B10: MEA4-(EAAAKLL)3-IB5A: hair-binding domain, SEQ ID NO: 94 (peptide)
chain: PSHINKTNPHQGNHHSEKTQRQGPEAAAKLLEAAAKLLEAAAKLLPATPPELLHGAPRSGS
B11: Gray5-(EAAAKLL)3-MEA4: hair-binding domain, SEQ ID NO: 90 (peptide)
chain: PSTAEIQSSKNPNPHPQRSWTNGPEAAAKLLEAAAKLLEAAAKLLPAHINKTNPHQGNHHSEKTQRQGS
B12: Gray3-(EAAAKLL)4-HB1: hair-binding domain, SEQ ID NO: 100 (peptide)
chain: PSHDHKNQKETHQRHAAGPEAAAKLLEAAAKLLEAAAKLLEAAAKLLPATPPTNVLMLATKGS
B13: HP2-(EEAAKK)4-MEA4: hair-binding domain, SEQ ID NO: 75 (peptide)
chain: PSAQSQLPDKHSGLHERAPQRYGPEEAAKKEEAAKKEEAAKKEEAAKKPAHINKTNPHQGNHHSEKTQRQGS
B14: HP2-TonB-IB5A: hair-binding domain, SEQ ID NO: 88 (peptide)
chain: PSAQSQLPDKHSGLHERAPQRYGPEPEPEPEPIPEPPKEAPVVIEKPKPKPKPKPKPPATPPELLHGAPRSGS
B15: HP2-TonB-HB1: hair-binding domain, SEQ ID NO: 93 (peptide)
chain: B14 chain with E63T, L64N, L65V, H66L, G67M, A68L, P69A, R70T, S71K
B16: MEA4-[(KP)6GG]2-MEA4: hair-binding domain, SEQ ID NO: 102 (peptide)
chain: PSHINKTNPHQGNHHSEKTQRQGPKPKPKPKPKPKPGGKPKPKPKPKPKPGGPAHINKTNPHQGNHHSEKTQRQGS
B17: HP2-TonB-Gray3: hair-binding domain, SEQ ID NO: 85, also found in peptide HC353 (peptide)
chain: PSAQSQLPDKHSGLHERAPQRYGPEPEPEPEPIPEPPKEAPVVIEKPKPKPKPKPKPPAHDHKNQKETHQRHAAGS

What was measured:
[1] = Phage ELISA of phage binding to hair; parameters: species or system human; conditions: phage-displayed peptide, 1×10^11 pfu; A450; relative to HP2-TonB-Gray3 = 100
Protocol: (§1) Phage particles recovered from panning (Example 2) were used to infect E. coli 10GF′ and transformants were purified by colony isolation. Purified phagemid clones were infected with helper phage VCSM13 and phage particles were isolated. Those purified phage clones were assayed for binding to hair by two methods.
Gray hair (200 strands, 1.5 cm long per bundle were blocked with BSA (1 mg/mL) at room temperature (˜21° C.) for 30 min in 1.5 mL microfuge tubes, then washed 3 times with TBS. Phage particles (1×10^11 pfu) were added in TBS plus 0.1% TWEEN®-20 and incubated at room temperature for 1 hr with gentle shaking. The hair was then washed 5 times with TBS plus 0.5% TWEEN®-20. Hair with bound phage was incubated with HRP/Anti-M13 monoclonal conjugate (GE Healthcare Bio-Science Corp, Piscataway, N.J.) at room temperature (˜21° C.) for 1 hr with gentle shaking, then washed 6 times with TBS plus 0.5% TWEEN®-20. IMMUNOPURE® TMB substrate kit (High sensitivity, Pierce, Rockford, Ill.; a division of Thermo Scientific) was used for colorimetric assay. After 15˜20 min development with gentle shaking, the reaction was stopped, and absorbance was determined at 450 nm. The Phage titer and ELISA data were reported relative to the activity observed for the hair-binding domain HP2-TonB-Gray3. (Table 4).

[2] = Phage titer assay of phage binding to hair; parameters: species or system human; conditions: phage-displayed peptide; six gray hair strands; relative to HP2-TonB-Gray3 = 100
Protocol: as §1
Six gray hair strands (1.5 cm long) were blocked with BSA (1 mg/mL) at room temperature (˜21° C.) for 30 min in 1.5 mL microfuge tubes, then washed twice with tris buffered saline (TBS). Phage particles were added in TBS plus 0.1% TWEEN®-20 and incubated at room temperature for 1 hour with gentle shaking. The hair was then washed 3 times with TBS plus 0.5% TWEEN®-20, and centrifuged briefly to remove excess liquid. E. coli 10GF′ (1 mL; OD600nm=0.5) was added for 15 min. Aliquots were plated on selective plates and phagemid-containing colonies were counted (Table 4)

Molecule	ELISA (%) relative to the activity of HP2-TonB-Gray3 [1] [%]	Phage Titer (%) relative to the activity of HP2-TonB-Gray3 [2] [%]
Gray1-(KP)8-Gray1: hair-binding domain, SEQ ID NO: 77 (PSGMPAMHWIHPFAGPKPKPKPKPKPKPKPKPPAGMPAMHWIHPFAGS)	1	1
Gray3-[(KP)6GG]2-KF11: hair-binding domain, SEQ ID NO: 83 (PSHDHKNQKETHQRHAAGPKPKPKPKPKPKPGGKPKPKPKPKPKPGGPANTSQLSTGS)	1	1
HB1-(KGGGS)4-HP2: hair-binding domain with flexible linker, SEQ ID NO: 95 (PSTPPTNVLMLATKGPKGGGSKGGGSKGGGSKGGGSPAAQSQLPDKHSGLHERAPQRYGS)	1	10
HB1-(KP)12-IB5A: hair-binding domain, SEQ ID NO: 96 (PSTPPTNVLMLATKGPKPKPKPKPKPKPKPKPKPKPKPKPPATPPELLHGAPRSGS)	1	5
HP2-(EEAAKK)2-MEA4: hair-binding domain, SEQ ID NO: 76 (PSAQSQLPDKHSGLHERAPQRYGPEEAAKKEEAAKKPAHINKTNPHQGNHHSEKTQRQGS)	130	330
KF11-[(KP)6GG]2-KF11: hair-binding domain, SEQ ID NO: 101 (PSNTSQLSTGPKPKPKPKPKPKPGGKPKPKPKPKPKPGGPANTSQLSTGS)	1	1
B1	55	55
B2	1	1
B3	60	10
B4	80	50
B5	1	1
B6	1	1
B7	1	1
B8	1	1
B9	8	40
B10	20	10
B11	115	25
B12	1	1
B13	170	80
B14	100	50
B15	1	30
B16	1	1
B17	100	100
